Measured values published in the supplement of paper PMC9170038.

Tested on: MS2 coat protein
Assay: apparent KD of MS2 coat protein; designed switch direction (-1 OFF switch, 1 ON switch): 1; higher = weaker reporter binding
In short: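 SNAP-549-labelled MS2 coat protein was titrated, doubling from 0.7 or 1.5 nM to 3 µM, over designed RNA switches transcribed on Illumina chips by stalled E. coli RNA polymerase. Runs were done without input, with 200 uM small-molecule ligand, or with an oligonucleotide input. Apparent KD is the per-design median over clusters of curve-fitted normalised fluorescence.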

[1] = input ligand: microRNA oligo, concentration not stated
[2] = Eterna round: R95, input ligand: FMN 200 uM
[3] = Eterna round: R95, input ligand: microRNA oligo, concentration not stated
[4] = Eterna round: R95, input ligand: none

Row | Sequence | apparent KD of MS2 coat protein (input ligand: FMN 200 uM) | apparent KD of MS2 coat protein [1] | apparent KD of MS2 coat protein (input ligand: none) | apparent KD of MS2 coat protein [2] | apparent KD of MS2 coat protein [3] | apparent KD of MS2 coat protein [4]
1 | AUAAAACAUGAGGAUCACCCAUGUCAACAAAGUCGAGGAUAUGGGCAAAUAAAAUAAGAACCAGAAGGCGAAUAUU [salish99_ss1_r3_037] (Eterna round: R96, puzzle: Same State 1) | 43.8 nM | 262 nM | 261 nM |  |  | 
2 | AUAAAACAUGAGGAUCACCCAUGUCAACAAAGUCGAGGAUAUGGGCAAAUAAAAUAAGAACCAGAAGGCGAAUAUU [salish99_ss1_r3_037] (puzzle: Same State 1) |  |  |  | 31 nM | 382 nM | 750 nM
3 | AUAAAACAUGAGGAUCACCCAUGUCAACAAAGUCGAGGAUAUGGGCUAAUAAAAUAAGAACCAGAAGGCGAAUAAU [salish99_ss1_r3_027] (puzzle: Same State 1) |  |  |  | 26.2 nM | 152 nM | 146 nM
4 | AUAAAACAUGAGGAUCACCCAUGUCAACAAAGUCGAGGAUAUGUGCAAAUAAAAUAAGAACCAGAAGGCGAAUAAU [salish99_ss1_r3_049] (puzzle: Same State 1) |  |  |  | 16.2 nM | 22.3 nM | 37.9 nM
5 | AUAACACUGGCAGGAUAUGGGAAAGGAAGUGUACCAGAAGGGCCAGAACGGCGAUGGACAUGAGGAUCACCCAUGUCUUAGCCU [PowerStrip SSNG 1.4] (Eterna round: R96, puzzle: Same State NG 1) | 12.7 nM | 11.4 nM | 13.9 nM |  |  | 
6 | AUAAGACAGGCAGGAUAUGGGCCUGACUCUGAUAUCAGAGUCUACACAUGAGGAUCACCCAUGUCCCAGAAGGGCCUGAAGAAG [Zavean] (Eterna round: R96, puzzle: Same State NG 2) | 17.6 nM | 92.2 nM | 102 nM |  |  | 
7 | AUAAGGCAAGCUUUUUUCUCGUAGUAUAAACAUGAGGAUCACCCAUGUGCCUACCCUGGAUCUUUGGAUCGCAGAAA [Ravebiat] (puzzle: Sensor for hsa-mir-208a) |  |  |  | 22.1 nM | 15.7 nM | 28.3 nM
8 | AUAAGUUCGAUGCUCGUCUCUCCGUACUAACAUGAGGAUCACCCAUGUGAUCGGGCAGUAGCCCGAUCAGUAUGGCC [Bizain] (puzzle: Sensor for hsa-mir-208a) |  |  |  | 90.7 nM | 68.3 nM | 114 nM
9 | AUAAUAAUAAGUCAGGAUAUGUUGAUAAAGACAUGAGGAUCACCCAUGUGAAAUAAAAUAAUAAUACAGAAGGGACAAUAAUAAA [JMF's solution 3] (puzzle: Same State 2) |  |  |  | 252 nM | 64 nM | 265 nM
10 | AUAAUUAAUGCAGGAUAUGAUUAACAUGAGGAUCACCCAUGUGGUGUUGUGAGUAAGGAGAGUGAUCAGAAGGGCAUUUUUUUU [JMF's solution 33] (Eterna round: R96, puzzle: Same State NG 2) | 666 nM | 298 nM | 343 nM |  |  | 
11 | AUAAUUUAUGCAGGAUAUGAUUAACAUGAGGAUCACCCAUGUGGUGUUGUGAGUAAGGAGAGUGAUCAGAAGGGCAUUUUUUUU [JMF's solution 70] (Eterna round: R96, puzzle: Same State NG 2) | 734 nM | 391 nM | 400 nM |  |  | 
12 | AUAUAACAUGAGGAUCACCCAUGUCUCUAAAGUCGAGGAUAUGGGCAAAUAAUAUAAGAACCAGAAGGCGAAUUAU [SS1 Teenbexe 4] (puzzle: Same State 1) |  |  |  | 143 nM | 34.1 nM | 79.3 nM
13 | AUAUACUGGGUAGGAUAUCUAGGAUAUGGGAAAGACUAAGUCUGUAGGUCACCUAACCCAGAUGGAGAGAAGGACCCAACACAC [pwkr ssNG2 2FMN + F9.42] (Eterna round: R96, puzzle: Same State NG 2) | 16.1 nM | 5.2 nM | 42.6 nM |  |  | 
14 | AUCAAAACAAGUUGCAGUGUUCGUCUUUCACAUGAGGAUCACCCAUGUAAUAGCCCAGCGGAAGCACUCGGGCCACC [Arzasola] (puzzle: Sensor for hsa-mir-208a) |  |  |  | 26.8 nM | 28.1 nM | 31.2 nM
15 | AUCAAAGCGUGAGGAUAUAUGGGAACACGAGUCGUAGAAGGUACGUCAAUACAUGAGGAUCACCCAUGUAAAGAGGAGAACCUC [Eternabot solution 33] (Eterna round: R96, puzzle: Same State NG 1) | 60.1 nM | 32.9 nM | 45.2 nM |  |  | 
16 | AUCAAUCUAUCUGAGGAUAUCAUGAAAUAAACAUGAGGAUCACCCAUGUGCAGGAAAACUGCAUAUGAGAAGGCAGAUAGAUUGA [salish99_ss2_r3_019] (puzzle: Same State 2) |  |  |  | 63.9 nM | 323 nM | 879 nM
17 | AUCCCAUCGGGAGGAUAUGGAACCUUAUUGGUUCCAGAAGGUCCAACAUGAGGAUCACCCAUGUGGGAGUGGUCUAAUGACCAC [Fiskers NG1ss - 29] (Eterna round: R96, puzzle: Same State NG 1) | 222 nM | 272 nM | 470 nM |  |  | 
18 | AUCCCAUCGGGAGGAUAUGGAACCUUAUUGGUUCUAGAAGGUCCAACAUGAGGAUCACCCAUGUGGGAGUGGUCUAAUGACCAC [SS NG10LRO01] (Eterna round: R96, puzzle: Same State NG 1) | 190 nM | 208 nM | 414 nM |  |  | 
19 | AUGCAGCUACCACAGGAUAUACGUGGAUCGACAUGAGGAUCACCCAUGUAUAUCCUAAUAAUUGCGUAGAAGGGUGGUCAGCUGC [Tezaqutete] (puzzle: Same State 2) |  |  |  |  | 696 nM | 
20 | AUUAAACAUGAGGAUCACCCAUGUCAACAAAGUCGAGGAUAUGGGCAUAUUAUCUUAUAACCAGAAGGCGAAUAAU [salish99_ss1_r3_086] (puzzle: Same State 1) |  |  |  |  | 155 nM | 
21 | AUUAAUAAUCUAGGAUAUCACGUCGAAUAGACGUGAGAAGGAGAUCAUAACAUGAGGAUCACCCAUGUAUUACAUGAAGUUAAU [SSNG1/7-B1] (Eterna round: R96, puzzle: Same State NG 1) | 27.5 nM | 29.9 nM | 34.8 nM |  |  | 
22 | AUUACUAACAUAGGAUAUCAUGCGAAAAUUGCGUGAGAAGGGUGGACGCUGUCAUUCACGGAAGACAUGAGGAUCACCCAUGUC [SameState NG1 #73] (Eterna round: R96, puzzle: Same State NG 1) | 170 nM | 70.5 nM | 119 nM |  |  | 
23 | AUUAUACAUGAGGAUCACCCAUGUAAUUAAUUAAUUAAGAUCUAGGAUAUCAGCUCGAUUAGAGCUGAGAAGGAGAUCACAUGU [SSNG3/20-C2] (Eterna round: R96, puzzle: Same State NG 3) |  | 21.2 nM |  |  |  | 
24 | AUUAUUUAUGCAGGAUAUGAUUAACAUGAGGAUCACCCAUGUGGUGUUGUGAGUAAGGAGAGUGAUCAGAAGGGCAUUUUUUUC [JMF's solution 59] (Eterna round: R96, puzzle: Same State NG 2) | 381 nM | 214 nM | 397 nM |  |  | 
25 | AUUAUUUCAUGAGGAUAUGGCACCUUAUUGGUGCCAGAAGGCAUGUCUAUUGACAUGAGGAUCACCCAUGUAUUAUAUUAUAUA [Eli NG1ss - 88] (Eterna round: R96, puzzle: Same State NG 1) | 57.4 nM | 658 nM | 493 nM |  |  | 
26 | AUUCGUUUGAUAGGAUAUCACCUUACAUGAGGAUCACCCAUGUUCACCACGCUGGUUUUUCAUACUGAGAAGGAUCUUGAUGAC [JR_SSNG2_Sub007] (Eterna round: R96, puzzle: Same State NG 2) | 50.5 nM | 45.6 nM | 51.4 nM |  |  | 
27 | AUUGCUAGCACAGGAUAUCAUGCGAAAAUUGCGUGAGAAGGGUGGACGCUGUCAUUCACGGAGGACAUGAGGAUCACCCAUGUC [SameState NG1 #78] (Eterna round: R96, puzzle: Same State NG 1) | 54.4 nM | 53.4 nM | 62.6 nM |  |  | 
28 | AUUGCUAUCACAGGAUAUCAUGCGGAAAUCGCGUGAGAAGGGUGGACUCUGUCAUUCACGGAGGACAUGAGGAUCACCCAUGUC [SS NG10LRO17] (Eterna round: R96, puzzle: Same State NG 1) | 612 nM | 18.4 nM | 36.3 nM |  |  | 
